# Ends that are not written are not given here.
# B1: adaptor protein FADD (other, UniProt Q13158 1-208, looked up)
# chain: MDPFLVLLHSVSSSLSSSELTELKFLCLGRVGKRKLERVQSGLDLFSMLLEQNDLEPGHTELLRELLASLRRHDLLRRVDDFEAGAAAGAAPGEEDLCAAFNVICDNVGKDWRRLARQLKVSDTKIDSIEDRYPRNLTERVRESLRIWKNTEKENATVAHLVGALRSCQMNLVADLVQEVQQARDLQNRSGAMSPMSWNSDASTSEAS
# notes: Detected with an anti-human FADD mAb (clone 1); also called Fas-associated death domain protein
# B2: neutralizing anti-CD95L mAb (Nok1) (antibody, from another filing, V domains shown)
# VH: VQLQESGPELVKPGASVKISCKASGYAFSSSWMNWVKQRPGKGLEWIGRIYPGDGDTNDNGKFKGKATLTADKSSSTAYMQLSSLTSEDSAVYFCARSYYYDGSPWFTYWGQGTTVTVSS
# VL: DIQMTQSPSSLSASLGDRVTISCRASQDISNYLNWYQQKPDGTVKLLIYYTSRLHSGVPSRFSGSGSGTDYSLTISNLEPEDIATYFCQQYSEFPWTFGGGTKLEIKR
# B3: CD95^(175-210)-mCherry (other)
# chain: KRKEVQKTCRKHRKENQGSHESPTLNPETVAINLSD-mCherry
# modifications: also: mCherry fused C-terminally, junction not given here
# notes: Expressed in HEK cells together with PLCγ1; also called CID-mCherry; CID-mCHERRY; not shown: mCherry of vector pmCHERRY-N1, fused C-terminally
# B4: GFP-fused CD95^1-175 (receptor)
# chain: RLSSKSVNAQVTDINSKGLELRKTVTTVETQNLEGLHHDGQFCHKPCPPGERKARDCTVNGDEPDCVPCQEGKEYTDKAHFSSKCRRCRLCDEGHGLEVEINCTRTQNTKCRCKPNFFCNSTVCEHCDPCTKCEHGIIKECTLTSNTKCKEEGSRSNLGWLCLLLLPIPLIVWVK
# notes: also called CD95 devoid of the entire intracellular domain; not shown: GFP of vector pEGFP-N1 (Clontech), fused C-terminally
# How the values were obtained:
# GFP-fused CD95^1-210 = molecular target: T1, GFP-fused CD95^1-210 (human, UniProt P25445 17-226); test: co-immunoprecipitation with CD95 from transfected HEK cells stimulated with CD95L, immunoblot
# T1 construct: also called CD95 construct devoid of DD; not shown: GFP of vector pEGFP-N1 (Clontech), fused C-terminally
# T1 sequence: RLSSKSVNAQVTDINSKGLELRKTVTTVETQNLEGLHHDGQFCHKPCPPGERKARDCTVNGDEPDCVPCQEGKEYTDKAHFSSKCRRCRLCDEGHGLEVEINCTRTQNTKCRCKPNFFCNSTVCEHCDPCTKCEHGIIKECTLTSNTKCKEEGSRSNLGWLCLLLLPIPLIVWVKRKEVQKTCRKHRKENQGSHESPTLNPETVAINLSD
# [1] = molecular target: serum CD95L of SLE patients (soluble, homotrimeric) (human) (UniProt P48023); test: cell-based or functional assay
# Sequence of serum CD95L of SLE patients (soluble, homotrimeric) (human) (P48023 130-281 limits assumed): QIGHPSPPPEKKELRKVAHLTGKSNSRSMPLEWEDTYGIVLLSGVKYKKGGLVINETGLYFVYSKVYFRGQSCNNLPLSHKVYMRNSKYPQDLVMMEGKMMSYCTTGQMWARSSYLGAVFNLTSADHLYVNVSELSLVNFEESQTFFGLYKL
# [2] = molecular target: T2, Myc-tagged full-length human PLCγ1 (human, UniProt P19174 1-1290); test: PLCγ1 immunoprecipitation from HEK cells co-transfected with PLCγ1 and CID-mCherry, immunoblot
# T2 construct: Transfected into HEK cells; also called wild type PLCγ1; phospholipase Cγ1; not shown: Myc tag of the pTriEx-4 construct
# T2 sequence (looked up): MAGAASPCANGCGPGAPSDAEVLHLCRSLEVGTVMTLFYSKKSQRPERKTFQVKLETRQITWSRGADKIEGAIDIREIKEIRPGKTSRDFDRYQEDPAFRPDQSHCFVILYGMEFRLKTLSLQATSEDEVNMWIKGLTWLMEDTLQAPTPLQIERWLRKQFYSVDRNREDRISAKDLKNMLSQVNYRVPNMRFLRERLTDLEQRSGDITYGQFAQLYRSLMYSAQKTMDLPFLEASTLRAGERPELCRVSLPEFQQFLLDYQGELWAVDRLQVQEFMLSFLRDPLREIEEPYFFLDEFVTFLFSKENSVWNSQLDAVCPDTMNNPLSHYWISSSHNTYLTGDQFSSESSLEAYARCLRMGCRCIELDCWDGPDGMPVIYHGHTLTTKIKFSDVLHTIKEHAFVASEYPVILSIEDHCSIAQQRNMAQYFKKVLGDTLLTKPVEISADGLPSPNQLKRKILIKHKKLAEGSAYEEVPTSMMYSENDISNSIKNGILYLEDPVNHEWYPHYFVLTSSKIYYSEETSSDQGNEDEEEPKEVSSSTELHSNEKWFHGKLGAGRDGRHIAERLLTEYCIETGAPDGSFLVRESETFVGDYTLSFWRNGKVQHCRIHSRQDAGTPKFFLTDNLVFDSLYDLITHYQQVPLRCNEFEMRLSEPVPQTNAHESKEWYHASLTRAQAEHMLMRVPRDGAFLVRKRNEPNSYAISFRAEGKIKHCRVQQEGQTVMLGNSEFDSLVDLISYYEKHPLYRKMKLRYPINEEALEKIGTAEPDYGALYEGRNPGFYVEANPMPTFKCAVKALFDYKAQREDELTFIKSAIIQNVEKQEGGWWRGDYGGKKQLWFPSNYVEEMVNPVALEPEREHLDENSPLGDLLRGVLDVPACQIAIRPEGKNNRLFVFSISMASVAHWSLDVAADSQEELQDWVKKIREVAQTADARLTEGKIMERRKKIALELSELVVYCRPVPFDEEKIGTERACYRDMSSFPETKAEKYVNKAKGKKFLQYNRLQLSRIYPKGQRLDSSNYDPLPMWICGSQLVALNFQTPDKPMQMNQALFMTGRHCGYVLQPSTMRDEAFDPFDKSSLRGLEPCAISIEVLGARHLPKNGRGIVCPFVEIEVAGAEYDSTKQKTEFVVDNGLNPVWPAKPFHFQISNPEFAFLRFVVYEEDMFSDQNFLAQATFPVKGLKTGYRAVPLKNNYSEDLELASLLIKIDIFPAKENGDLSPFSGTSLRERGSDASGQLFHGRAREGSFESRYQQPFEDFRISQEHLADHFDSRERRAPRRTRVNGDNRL
# adaptor protein FADD = molecular target: B1; test: co-immunoprecipitation with CD95 from transfected HEK cells stimulated with CD95L, immunoblot
# Experimental: (§1) The immune complex was resolved by SDS-PAGE, and the indicated immunoblotting was performed. Total lysates were loaded as a control. […] The immune complex was resolved by SDS/PAGE, and the indicated immunoblottings were performed. Total lysates were loaded as a control. […] The immune complex was resolved by SDS-PAGE, and the indicated immunoblotting was performed. Total lysates were loaded as a control. […] The immune complex was resolved by SDS-PAGE, and the indicated immunoblotting was performed. Total lysates were loaded as a control. E. Jurkat and CEM were loaded with FuraPE3-AM (1 μM), pretreated for 1 h with 10 μM of TAT-control or TAT-CID and then stimulated with 100 ng/ml of cl-CD95L (black arrow). Ratio images were taken every 10 s and were normalized vs pre-stimulated values. F. Human PBLs from healthy donors were loaded with furaPE3-AM (1 μM) pretreated for 1 h with 10 μM of TAT-control or TAT-CID or with the IP3R inhibitor Xestospongin C (positive control, 1 μM, 1 h) and then stimulated with 100 ng/ml of cl-CD95L (black arrow). Ratio values (R) were normalized vs pre-stimulated values (R0). Data represent mean±SD of R/R₀ measured in n cells.
# [3] = molecular target: T2, Myc-tagged full-length human PLCγ1; test: as above
# Experimental: as §1
binder,measurement,setting,value
B1,binding result,GFP-fused CD95^1-210,no binding
B2,T-cell transmigration induced by fractions 76-78,[1],< 50%
B3,binding result,[2],binds
B4,binding result,adaptor protein FADD,no binding
same,binding result,[3],no binding

# Reference: patent US20170044234A1 (INSERM INSTITUT NATIONAL DE LA SANTE ET DE LA RECHERCHE …, published 2017)
